The supplement of paper PMC9170038

Test system: K4 kissing-loop RNA reporter
Assay: apparent KD of K4 kissing-loop reporter; higher = weaker reporter binding
Conditions: Eterna round: R107
Description: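 RNA-MaP round R107: designed RNA switches with theophylline, tryptophan, arginine or FMN aptamers are transcribed on-chip within common flanks. They are titrated with a labelled K4 kissing-loop RNA reporter in RNA-MaP buffer (100 mM Tris pH 7.5, 80 mM KCl, 4 mM MgCl2), without ligand or with the indicated ligand. Median apparent KD per design.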

[1] = input ligand: theophylline 20 uM
[2] = input ligand: tryptophan 2.4 mM
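Further: bound reporter read as fluorescence of individual clusters on recovered sequencing chips by microscopy, with normalized cluster intensities fitted with a binding model.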

Row | Sequence | apparent KD of K4 kissing-loop reporter (input ligand: FMN 200 uM) [µM] | apparent KD of K4 kissing-loop reporter (input ligand: arginine 13.2 mM) [µM] | apparent KD of K4 kissing-loop reporter (input ligand: none) [µM] | apparent KD of K4 kissing-loop reporter [1] [µM] | apparent KD of K4 kissing-loop reporter [2] [µM]
1 | UUAGGAGUGGAAGGAUAUCCUGGUGUGGGUGAUGUUAGUGAUGUUGAAGGUGCAGUGAUGUUGCGCGGAGAAGGUCCGGUGUUGA [BDazzled - #6 - Exc. FMN B] | 0.344 | 0.341 | 0.367 | 0.546 | 0.319
2 | UUAGGGAUCUCGGCCGCCACUCGUGGGAAAUGGGCCUCAGGGAUAUAGUGAUGUUAUGUAAAGAAGAGGACCGGGAGAAGGAAGG [ExTryptoB.Di] | 0.451 | 0.364 | 0.476 |  | 0.155
3 | UUAGUCUAGAGAAGGAGCGAGUGAUGUUCGCAUGAUCUCAUGAUAUCAUGAGAUCGAAAUCCUCAGGUAGGUCGCUCUAGACAUU [AK6 Exc Arginine B] | 0.493 | 0.372 | 0.534 | 0.424 | 0.545
4 | UUAGUCUAGAGAGGAUAUCAGUGAUGUUGAUAUCAAGAUCAUAGAUAGAAUUCUAUCUAUGAUCAAUGAGAAGGCUCUAGACAUU [AK1 Exc FMN B] | 0.746 | 0.141 | 0.161 | 0.155 | 0.163
5 | UUAUAUAAUUAGUCUUUUUUAACAUUAAGUCAGGAUAUCGUAUAUUCGAGAAGGGACACAUGCUAGUGAUGUUAGCUAUUUCUUU [JR_ExcFMNA_Sub017] | 0.0324 | 0.0547 | 0.0307 | 0.0501 | 0.0315
6 | UUAUAUUUUAUAUUUAGUAGAGCUCUCACUCGAGGACCGGUACGGCCGCCACUCGAGUGAUGUUCGAGUGGGAGAGCUCUACAUU [AK3.2 EXC Tryptophan A] | 0.118 | 0.104 | 0.0998 | 0.116 | 0.315
7 | UUAUCUAUAUUCGAUACCAGUACCCUUUGUGUUGAUCCUUUUAUCAGUGAUGUUGAUGUGUACCCUUGGCAGCGGGUAUGGGUUU [KL-XTheo-B16] | 0.384 | 0.37 | 0.425 | 0.556 | 0.279
8 | UUCAGGUGUUCGGCCGCCACUCCAGUGAUGUUGGAGUGGCUUCACAAGGACCAGGACAAUGUAAGGAGGACCGGGAAUAUCUCAG [Vequleat] | 0.13 | 0.105 | 0.136 | 0.128 | 0.118
9 | UUCAGGUGUUCGGCCGCCACUCCAGUGAUGUUGGAGUGGCUUCACAAGGGCCAGGACAAUGUAAGGAGGACCGGGAAUAUCUCAG [Onisle] | 0.0979 | 0.0961 | 0.132 | 0.0773 | 0.111
10 | UUCCAGUGAUGUUGGUAUCUGAUAAGGGAAGGAGCGCGGAUUAACGCAGGUAGGUCGCCCAAGUAAUAAAUGUUUAUUAAUUGAU [Default title] | 0.183 | 0.193 | 0.201 | 0.161 | 0.188
11 | UUCUACGAGUGAUGUUCGUAGUGUAAUAGUUAGGAUAUCGUUUUUUCGAGAAGGAACUUCGAAGUGAUACGAAAGUAUCGCUUCG [FMN A 11] | 0.122 | 0.117 | 0.126 | 0.132 | 0.136
12 | UUGACCUACUCAGGAUAUCCGCAGUGAUGUUGCGGUUGGCCUGAGCGACAUGAAAAUCUUACUACAGGAGAAGGGAGAGGGUUAC [Anraerce] | 0.106 | 0.0798 | 0.134 | 0.0885 | 0.0969
13 | UUGAGGGAGAAUUAUAGUGAUGUUAUAAAGAAGGAUAUCCAAAGAAGGAGAAGGUCUAAGAGGGAAGGGAGGGAGGGAGGGAGGG [ExFMNA.C] | 0.38 | 0.131 | 0.281 | 0.0971 | 0.202
14 | UUGGAAAGACCAGAACAGGGCCUUAUCUGGGAGGAUAUGCUGGAGGGCAGAAGGCCCAGUGAUGUUGGGCCUUGUGCUCGUUCUA [Ainanti] | 0.165 | 0.125 | 0.139 | 0.137 | 0.145
15 | UUGGGCGAGGUAACGUGGAUAUCUCGUCGCAAGGAUAUCUGGAAACAGAGAAGGUGCUACAUUACCGGCAGUGAUGUUGCUGACC | 0.418 | 0.101 | 0.555 | 0.347 | 0.121
16 | UUGUUUGGUUGAGAGGUUGGGCGAGAUGAUACCAGUAGAGAAGAAUACCCUUGGCAGCAUAAGAAAGAUAUAGUGAUGUUGUAUA [SSTheophA.O] | 0.538 | 0.356 | 0.49 | 0.529 | 0.475
17 | UUGUUUGGUUGAGAGGUUGGGCGAGAUGAUACCAGUAUAGUAGAGUACCCUUGGCAGCAUAGGAGAGAUAUAGUGAUGUUGUAUG [SSTheophA.U] | 0.39 | 0.302 | 0.477 | 0.482 | 0.381
18 | UUGUUUGGUUGAGAGGUUGGGCGAGAUGAUACCAGUAUAGUAUUGUACCCUUGGCAGCAUAUGAGAGAUAUAGUGAUGUUGUAUG [SSTheophA.X] | 0.521 | 0.358 | 0.529 | 0.532 | 0.411
19 | UUGUUUUACUGAAGGAGCGGCAAUUGAUACGUAGAUAUAGUGAUGUUAUAUAAGAUAGAGAGCCAGGUAGGUCGCAGAGGUGUUU [ExArgB.S] | 0.176 | 0.15 | 0.21 | 0.18 | 0.168
20 | UUUAAACAUAGUGAUGUUAUGUAACAGUGACGAGGACCGGUACGGCCGCCACUCGAGAGAGAUAGUGGUCAUGCAAAUGUAUGCC [#16 K4 Tryptophan A Same State] | 0.145 | 0.167 | 0.123 | 0.136 | 0.137
21 | UUUAAAUAUAGUGAUGUUAUAUAACAAUGACGAGGACCGGUACGGCCGCCACUCGAGAGAGAUAAUGGUAAAAUAAAUAAUUUUC [AstrosSSTryA#3] | 0.395 | 0.585 | 0.709 | 0.783 | 0.389
22 | UUUAACGAGUGAUGUUCGAAGAGUAAGGGUGAGGAUAUCGAUUUUUCGAGAAGGCGCCUCGAAGUGAUACGAAAGUAUCGCUUCG [FMN A 7] | 0.246 | 0.224 | 0.269 | 0.269 | 0.215

Row | Sequence | apparent KD of K4 kissing-loop reporter (input ligand: FMN 200 uM) [µM] | apparent KD of K4 kissing-loop reporter (input ligand: arginine 13.2 mM) [µM] | apparent KD of K4 kissing-loop reporter (input ligand: none) [µM] | apparent KD of K4 kissing-loop reporter [1] [µM] | apparent KD of K4 kissing-loop reporter [2] [µM]
23 | UUUAUAAAGUCGGCCGCCACUGGAUUUAUAUUUGUUUCGUCUGGAUCAAAGUGAUGUUUUGAGUCCAGGACCGGGACAUUUGUUA [whbob_Ex_Tryp_B_w37] | 0.0807 | 0.0711 | 0.0746 | 0.0691 | 0.0932
24 | UUUAUAAAGUCGGCCGCCACUGGUUUUAUUUUUGUUUAAUCUGGAUCAUAGUGAUGUUAUGAGACCAGGACCGGGACAUUUGUUA [#08 K4 Tryptophan B Exclusion] | 0.0895 | 0.086 | 0.0882 | 0.0938 | 0.132
25 | UUUAUAGUGACGGCCGCCACUAUAUUAAUGUUUAGGUUAGAGUGAUGUUUUGAUUAAUAUUUUUAUAGGACCGGGUUAUAUGUUU [ggbvmullin] | 0.669 | 0.488 | 0.632 | 0.515 | 0.591
26 | UUUAUAUAGUCGGCCGCCACUGAUUUUUAUAUAUGUUUAUGUUUAUACGAGUGAUGUUCGAUAUACAGGACCGGGACUUUUGUUA [JR_SSTryptoB_Sub017] | 0.268 | 0.291 | 0.294 | 0.306 | 0.207
27 | UUUAUAUUGUCGGCCGCCACUGGAUUAAUAUUUGUAUAAUCUAGUUCAAAGUGAUGUUUUGAGUCCAGGACCGGGACAUUUGUUA [JR_ExcTryptoB_Sub004] | 0.67 | 0.515 | 0.536 | 0.558 | 0.445
28 | UUUAUUAAGACGGCCGCCACUGAAUCAUAGUGAUGUUAUGAUAAAAUUUUAGAUAAUAAUAACAGCAGGACCGGGUCAAUUAUUA [JR_SSTryptoB_Sub015] | 0.2 | 0.173 | 0.208 | 0.191 | 0.182
29 | UUUAUUAAGACGGCCGCCACUGAUUCAGAGUGAUGUUCUGAUAAAAUUUUAGAUAAUAAUAACAGCAGGACCGGGUCAAUUAUUA [JR_SSTryptoB_Sub014] | 0.211 | 0.211 | 0.238 | 0.219 | 0.208
30 | UUUCUACCGGGAAGGAGCGUGAAUGAUAAUGGAUAUAGUGAUGUUAUAUAUACGAACGAAUCGCAGGUAGGUCGCCCGGAUCCCU [SSArgB.V] | 0.492 | 0.594 | 0.593 | 0.549 | 0.496
31 | UUUCUUUUCUUUUGCGAUCCUAUCCCUUAUAAGGAUAUCUAGAAAUAGAGAAGGUAUGCAGUGAUGUUGCUUGGGAUAGGAUCGC | 0.311 | 0.275 | 0.301 | 0.277 | 0.241
32 | UUUGGCCACAGAGAUACCAGUCAUAUCGCUCUGGAGUGAUGUUCCGGAACAUGCGGAGAAGACCCUUGGCAGCUCAUGACGGUAA [Exclusion Theophylline B GF 2] | 0.232 | 0.194 | 0.196 | 0.201 | 0.254
33 | UUUGGUAGCGGUGUUGAUUAGGGAGCGGAAGGAGCGCCGAGGAGGGCAGGUAGGUCGCCGGAAUGUAGUGAUGUUGCAUAGAGGU [ExArgA.Ab] | 0.269 | 0.227 | 0.253 | 0.574 | 0.214
34 | UUUGUAUCGGGAAGGAGCGUGAAUGAUAAUGGAUAUAGUGAUGUUAUAUAUAAGAACGAAUCACAGGUAGGUCGCCCGGAUGACU [SSArgB.P] | 0.546 | 0.566 | 0.648 | 0.586 | 0.678
35 | UUUGUGAGUGAUGUUUGCAAUACGUUACCGAAGGAUAUUGUUGCGCCAAGAAGGUCGGAUGGAUCCAUGGGACAUGCCCUGGAGA [theeternabot_sameState_KL_FMN_A_45] | 0.617 | 0.384 | 0.509 | 0.45 | 0.474
36 | UUUUAAUAAGAGGAUACCAGUACAAAUAAAGUACAUUAAUAGUAGAGUGAUGUUCUAAAGUACCCUUGGCAGCUUAGAGUAAGUU [ExTheophylB.B] | 0.123 | 0.242 | 0.156 | 0.26 | 0.0998
37 | UUUUAAUGCAGUGAUGUUGCAAAUAAAACAGAGGAUAUGCAUGGAAGCAGAAGGCUGAUAUGUCGUACUUCGACAUAUUAUAUUU [JR_SSFMNA_Sub012] | 0.0892 | 0.125 | 0.0914 | 0.121 | 0.081
38 | UUUUACGAUACGGCCGCCACUGGUGUUAUAUAUUUGCAGGAGUGAUGUUCGUGCGAUCAUUCCAUCAGGACCGGGUAUACGCGGC [theeternabot_sameState_KL_Trp_B_43] | 0.265 | 0.209 | 0.318 | 0.765 | 0.507
39 | UUUUAUUAAUACUUCUAGUGAUGUUAGAUACGAGGACCGGUACGGCCGCCACUCGCUUAUUGGUUUAUAUAUUUUUUAUUCUUUA [JR_SSTryptoA_Sub013] | 0.276 | 0.349 | 0.316 | 0.353 | 0.263
40 | UUUUGGCCAACGGCCGCCACUCACUAGUGAUGUUAGUUUGUGUUAUUCAUGAACCCGAUGUCGUCGAGGACCGGGUUGGGUUAUA [theeternabot_exclusion_KL_Trp_B_41] | 0.242 | 0.197 | 0.237 | 0.201 | 0.244
41 | UUUUUAAACUCGGCCGCCACUCAAAUGGGAGUGAUGUUCCCAAAAUAAUAAAUAAAUAAUAAUAAGAGGACCGGGAGAAAUUUUU [Same State - Trytophan B] | 0.094 | 0.0982 | 0.106 | 0.0948 | 0.0813
42 | UUUUUAAUCGCAGAUACCAGUCCAGAAUAAAUACUAUAGUGAUGUUAUAAAUAAGGAAAGGACCCUUGGCAGCUGUACUAUAUUU [AstrosSsTheB#7] | 0.433 | 0.465 | 0.668 | 0.372 | 0.524
43 | UUUUUAUUCAGUGAUGUUGAAUUUAUAACAGAGGAUAUGCAUAAAAGCAGAAGGCUGAAAUACUAUACUUUAAUAAAUUAUAUUU [JR_SSFMNA_Sub016] | 0.214 | 0.274 | 0.261 | 0.326 | 0.192
44 | UUUUUUAAGAUGUCGACCAACCCGAAGCUACGAGGACCGGUACGGCCGCCACUCGCCAGUGAUGUUGGCGACUGGUGAAACCAUG [Ceesaror] | 0.133 | 0.0978 | 0.11 | 0.103 | 0.227
